Experimental findings from patent publication US20170114412A1 are described below.

The assay addresses Robo2, human, full-length, non-tagged (human) (UniProt Q9HCK4). The assay is described as follows: cell-based or functional assay.

Robo2, human, full-length, non-tagged (human), sequence (Q9HCK4 22-1378 limits assumed, form in doubt): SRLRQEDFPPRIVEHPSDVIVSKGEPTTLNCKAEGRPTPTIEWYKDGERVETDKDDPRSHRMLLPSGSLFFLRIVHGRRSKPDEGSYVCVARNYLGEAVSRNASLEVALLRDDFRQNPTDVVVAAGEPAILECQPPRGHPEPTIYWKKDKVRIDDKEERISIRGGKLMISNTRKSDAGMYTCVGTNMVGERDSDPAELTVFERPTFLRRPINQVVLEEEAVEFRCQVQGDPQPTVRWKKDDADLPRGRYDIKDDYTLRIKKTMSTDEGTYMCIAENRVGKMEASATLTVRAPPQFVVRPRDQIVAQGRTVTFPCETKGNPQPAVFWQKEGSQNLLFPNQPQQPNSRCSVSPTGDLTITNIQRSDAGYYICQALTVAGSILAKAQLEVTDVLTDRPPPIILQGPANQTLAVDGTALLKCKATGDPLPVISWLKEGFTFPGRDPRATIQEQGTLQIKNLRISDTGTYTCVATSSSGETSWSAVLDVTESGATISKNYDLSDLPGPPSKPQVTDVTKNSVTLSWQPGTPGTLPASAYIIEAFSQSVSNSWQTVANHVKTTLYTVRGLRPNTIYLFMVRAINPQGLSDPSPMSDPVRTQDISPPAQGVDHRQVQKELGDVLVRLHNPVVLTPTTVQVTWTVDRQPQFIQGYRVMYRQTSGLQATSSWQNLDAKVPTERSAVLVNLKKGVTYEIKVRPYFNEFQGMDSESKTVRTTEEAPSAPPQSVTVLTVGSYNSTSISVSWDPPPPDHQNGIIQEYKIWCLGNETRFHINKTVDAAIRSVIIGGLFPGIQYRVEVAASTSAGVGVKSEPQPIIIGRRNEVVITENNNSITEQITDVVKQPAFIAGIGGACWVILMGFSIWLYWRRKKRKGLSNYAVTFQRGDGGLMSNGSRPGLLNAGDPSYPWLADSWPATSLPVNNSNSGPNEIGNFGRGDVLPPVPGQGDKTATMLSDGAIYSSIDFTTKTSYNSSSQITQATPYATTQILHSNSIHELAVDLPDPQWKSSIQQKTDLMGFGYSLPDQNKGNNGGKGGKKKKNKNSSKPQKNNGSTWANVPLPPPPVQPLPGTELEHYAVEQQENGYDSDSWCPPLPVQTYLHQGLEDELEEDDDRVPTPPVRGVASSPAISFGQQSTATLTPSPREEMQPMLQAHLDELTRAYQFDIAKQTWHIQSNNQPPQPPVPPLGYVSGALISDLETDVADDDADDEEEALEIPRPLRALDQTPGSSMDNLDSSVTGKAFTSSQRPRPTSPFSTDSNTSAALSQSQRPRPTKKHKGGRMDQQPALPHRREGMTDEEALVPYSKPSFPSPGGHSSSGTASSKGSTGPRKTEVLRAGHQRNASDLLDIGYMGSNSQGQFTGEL

Regarding “Slit2 (myc-tagged), in conditioned medium of stably transfected cells (ligand)”, the percentage of CD16/7-NCD clustered HEK cells with F-actin tails (control medium without Slit2: ~80%) stood at 40%.
